The target in this assay is T1, Human cytosolic aspartyl-tRNA synthetase (human), P14868.
T1 chain: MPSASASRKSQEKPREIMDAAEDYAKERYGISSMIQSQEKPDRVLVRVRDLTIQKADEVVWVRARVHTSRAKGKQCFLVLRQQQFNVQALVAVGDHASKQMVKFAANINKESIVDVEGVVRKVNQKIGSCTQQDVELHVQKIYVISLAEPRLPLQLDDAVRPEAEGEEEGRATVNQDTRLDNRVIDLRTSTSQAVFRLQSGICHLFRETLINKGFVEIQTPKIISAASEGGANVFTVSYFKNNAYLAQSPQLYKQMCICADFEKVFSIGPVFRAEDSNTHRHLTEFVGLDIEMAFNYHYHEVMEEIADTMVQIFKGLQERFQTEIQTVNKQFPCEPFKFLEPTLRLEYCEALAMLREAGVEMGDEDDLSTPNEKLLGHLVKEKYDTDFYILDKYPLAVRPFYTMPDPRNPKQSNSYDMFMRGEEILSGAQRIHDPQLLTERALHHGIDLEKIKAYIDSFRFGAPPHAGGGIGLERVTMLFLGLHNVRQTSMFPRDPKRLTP
The experiment in a line: crystal structure. As to conditions: remark: other sources report otherwise.

B1: Human cytosolic aspartyl-tRNA synthetase, P14868 1-501 (enzyme)
chain: MPSASASRKSQEKPREIMDAAEDYAKERYGISSMIQSQEKPDRVLVRVRDLTIQKADEVVWVRARVHTSRAKGKQCFLVLRQQQFNVQALVAVGDHASKQMVKFAANINKESIVDVEGVVRKVNQKIGSCTQQDVELHVQKIYVISLAEPRLPLQLDDAVRPEAEGEEEGRATVNQDTRLDNRVIDLRTSTSQAVFRLQSGICHLFRETLINKGFVEIQTPKIISAASEGGANVFTVSYFKNNAYLAQSPQLYKQMCICADFEKVFSIGPVFRAEDSNTHRHLTEFVGLDIEMAFNYHYHEVMEEIADTMVQIFKGLQERFQTEIQTVNKQFPCEPFKFLEPTLRLEYCEALAMLREAGVEMGDEDDLSTPNEKLLGHLVKEKYDTDFYILDKYPLAVRPFYTMPDPRNPKQSNSYDMFMRGEEILSGAQRIHDPQLLTERALHHGIDLEKIKAYIDSFRFGAPPHAGGGIGLERVTMLFLGLHNVRQTSMFPRDPKRLTP
Take B1: the stoichiometry N was 2.

The term stoichiometry N denotes a count of units in the complex or per binding partner.

Source of the values: paper PMC3824080.
